Literature values as cited in article PMC9442343.
pKd: −log10 of the molar value.

Target: IL-18 (Homo sapiens) (UniProt Q14116)
Sequence (Q14116 37-193): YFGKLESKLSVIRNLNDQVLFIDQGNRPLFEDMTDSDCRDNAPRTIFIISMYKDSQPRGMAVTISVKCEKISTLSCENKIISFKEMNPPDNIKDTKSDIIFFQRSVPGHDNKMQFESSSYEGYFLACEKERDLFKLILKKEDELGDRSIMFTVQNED

Sequence of IL-18BP (O95998 31-194): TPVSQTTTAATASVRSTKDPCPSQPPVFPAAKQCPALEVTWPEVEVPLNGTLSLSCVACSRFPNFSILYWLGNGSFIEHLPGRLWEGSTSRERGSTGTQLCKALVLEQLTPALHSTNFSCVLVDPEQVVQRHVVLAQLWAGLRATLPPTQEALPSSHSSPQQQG

IL-18BP (from UniProt O95998)
pKd: 9.40
